According to patent US20190153059A1 (ADEPTHERA, published 2019):
Where two headings read alike, the source gives them in different places. Square brackets hold non-standard residues; d marks the D form. Ends that are not written are not given here. * marks the point of attachment. Palmitoyl = CCCCCCCCCCCCCCCC(=O)*; miniPEG = mini-PEG spacer unit; AEEA = NCCOCCOCC(=O)O

B1: SEQ ID NO: 110 (peptide)
peptide: Palmitoyl-KGCRFGTCTVQKLAHQIYQFTDKDAPVDPSSPHSY-NH2
modifications: ends and bridges not checked
B2: SEQ ID NO: 76 (peptide)
peptide: Ac-TVQKLAHQIYQFTDKDKDNSAPVDPSSPHSY-NH2
B3: SEQ ID NO: 34 (peptide)
peptide: Palmitoyl-KGCRFGTCTVQKLAHQIYQFTDKDKDNVAPVDPSSPHSY-NH2
modifications: ends and bridges not checked
B4: SEQ ID NO: 146 (peptide)
peptide: YGGFLRRIRPKLKKVQKLSAPVDPSSPHSY
modifications: Ace- at N-terminus; miniPEG between YGGFLRRIRPKLK and K(Pal); K(Pal); -NH2
B5: SEQ ID NO: 124 (peptide)
peptide: Pal-KVQKLAHQSAPVDPSSPHSY-NH2
B6: SEQ ID NO: 121 (peptide)
peptide: Palmitoyl-KVQKLAHQIYQFTDKDSAPVDPSSPHSY-NH2
B7: SEQ ID NO: 36 (peptide)
peptide: Palmitoyl-KGCRFGTCTVQKLAHQIYQFTDKGRQDSAPVDPSSPHSY-NH2
modifications: ends and bridges not checked
B8: SEQ ID NO: 142 (peptide)
peptide: Palmitoyl-KVQKLNFVPTNVGSKAF-NH2
B9: SEQ ID NO: 44 (peptide)
peptide: Palmitoyl-KCRFGTCTVQKLAHQIYQFTDKDKDNSAPVDPSSPHSY-NH2
modifications: ends and bridges not checked
B10: SEQ ID NO: 120 (peptide)
peptide: Palmitoyl-KVQNLSHRLWQLMGPAGSAPVDPSSPHSY-NH2
B11: SEQ ID NO: 123 (peptide)
peptide: Palmitoyl-KVQKLAHQISAPVDPSSPHSY-NH2
B12: SEQ ID NO: 114 (peptide)
peptide: MiniPEG-KVQKLAHQIYSAPVDPSSPHSY-NH2
modifications: also: K(Pal), Lys not given here
B13: SSTR2 and CLR/RAMP MRL (SEQ ID NO: 218) (peptide)
peptide: FCFWKTCTKVQKLAHQIYQFTDKDVAPRSKISPQGY
modifications: (D-Phe) at position 1 and (D-Trp) in (D-Phe)CF(D-Trp)KTCT; miniPEG before K(Pal); K(Pal); -NH2
B14: SEQ ID NO: 77 (peptide)
peptide: Palmitoyl-TVQKLAHQIYQFTDKDKDNSAPVDPSSPHSY-NH2
B15: SEQ ID NO: 78 (peptide)
peptide: miniPEG-K(Palmitoyl)VQKLAHQIYQFTDKDKDNSAPVDPSSPHSY-NH2
B16: BDKRB1 antagonist and CLR/RAMP agonist MRL (SEQ ID NO: 231) (peptide)
peptide: KRPPGFSIKGCRFGTCTVQKLAHQIYQFTDKDVAPRSKISPQGY
modifications: Ace- at N-terminus; D/Nal in KRPPGFS-D/Nal-I; miniPEG before K(PAL); K(PAL); -NH2
B17: SEQ ID NO: 112 (peptide)
peptide: MiniPEG-KVQKLAHQIYQFTDKDSAPVDPSSPHSY-NH2
modifications: also: K(Pal), Lys not given here
B18: SEQ ID NO: 73 (peptide)
peptide: KGCRFGTCTVQKLAHQIYQFTDKDKDNVAPRSKISPQGY
modifications: Pal- at N-terminus; K(Pal); -NH2
B19: SEQ ID NO: 45 (peptide)
peptide: Palmitoyl-GCRFGTCTVQKLAHQIYQFTDKDKDNSAPVDPSSPHSY-NH2
modifications: ends and bridges not checked
B20: SEQ ID NO: 122 (peptide)
peptide: Palmitoyl-KVQKLAHQIYSAPVDPSSPHSY-NH2
B21: SEQ ID NO: 145 (peptide)
peptide: YAGFLKVQKLSAPVDPSSPHSY
modifications: Ace- at N-terminus; (D-Ala) and (D-Leu) in Y(D-Ala)GF(D-Leu); miniPEG before K(Pal); K(Pal); -NH2
B22: SEQ ID NO: 93 (peptide)
peptide: Ac-KGCRFGTCTVQKLAHQIYQFTDKDSAPVDPSSPHSY-NH2
modifications: cysteine pairing not given here
B23: SEQ ID NO: 65 (peptide)
peptide: Ac-K(Palmitoyl)GCRFGTCTVQKLAHQIYQFTDKDKDNVAPRSKSSPHSY-NH2
modifications: ends and bridges not checked
B24: SEQ ID NO: 41 (peptide)
peptide: Ac-TK(Palmitoyl)KTLRTGCRFGTCTVQKLAHQIYQFTDKDKDNVAPVDPSSPHSY-NH2
modifications: ends and bridges not checked
B25: SEQ ID NO: 144 (peptide)
peptide: Ac-NFVPTNVGPFAF-NH2
B26: SEQ ID NO: 119 (peptide)
peptide: Palmitoyl-KVQKLAHQIYQFTDKDVAPRSKISPQGY-NH2
B27: SEQ ID NO: 211 (peptide)
peptide: KGCRFGTCTVQKLAHQIYQFTDKDVAPRSKISPQGY
modifications: miniPEG- at N-terminus; K(PAL); (D-Val) in ...GTCT(D-Val)QKL...; -NH2
B28: SEQ ID NO: 35 (peptide)
peptide: Palmitoyl-KGCRFGTCTVQKLAHQIYQFTDKDKQDSAPVDPSSPHSY-NH2
modifications: ends and bridges not checked
B29: SEQ ID NO: 40 (peptide)
peptide: Palmitoyl-KTKKTLRTGCRFGTCTVQKLAHQIYQFTDKDKDNVAPVDPSSPHSY-NH2
modifications: ends and bridges not checked
B30: SEQ ID NO: 141 (peptide)
peptide: Palmitoyl-KVQNLSAPVDPSSPHSY-NH2
B31: SEQ ID NO: 125 (peptide)
peptide: Palmitoyl-KVQKLAHQIYQFTDKSAPVDPSSPHSY-NH2
B32: SEQ ID NO: 31 (peptide)
peptide: Palmitoyl-KGCRFGTCTVQKLAHQIYQFTPAGRQDSAPVDPSSPHSY-NH2
modifications: cysteine pairing not given here
B33: SEQ ID NO: 116 (peptide)
peptide: Ace-TVQKLAHRLWQLMGPDKDNVAPRSKISPQGY-NH2
B34: SEQ ID NO: 115 (peptide)
peptide: Ace-VTHRLAGLLSRFTDKDKDNVAPRSKISPQGY-NH2
B35: SEQ ID NO: 33 (peptide)
peptide: Ac-K(Palmitoyl)GCRFGTCTVQKLAHQIYQFTPAGRQDSAPVDPSSPHSY-NH2
modifications: cysteine pairing not given here
B36: SEQ ID NO: 43 (peptide)
peptide: [AEEA]K(Palmitoyl)CRFGTCTVQKLAHQIYQFTDKDKDNSAPVDPSSPHSY-NH2
modifications: ends and bridges not checked
B37: SEQ ID NO: 38 (peptide)
peptide: Palmitoyl-KTKKTLRTGCRFGTCTVQKLAHQIYQFTDKDKDNSAPVDPSSPHSY-NH2
modifications: ends and bridges not checked
B38: SEQ ID NO: 39 (peptide)
peptide: Ac-TK(Palmitoyl)KTLRTGCRFGTCTVQKLAHQIYQFTDKDKDNSAPVDPSSPHSY-NH2
modifications: ends and bridges not checked

Key:
Assay in all cases: cell-based or functional assay
CLR/RAMP1 receptor [1] = biological target: T1, CLR/RAMP1 receptor (UniProt Q16602 23-461; O60894 27-148, limits assumed)
CLR/RAMP2 receptor [2] = biological target: T2, CLR/RAMP2 receptor (UniProt Q16602 23-461; O60895 43-175, limits assumed)
CLR/RAMP1 receptor [3] = biological target: T1, CLR/RAMP1 receptor; remark: listed apart in the source
CLR/RAMP2 receptor [4] = biological target: T2, CLR/RAMP2 receptor; remark: listed apart in the source
CLR/RAMP3 receptor = CLR/RAMP3 receptor (UniProt Q16602 23-461; O60896 24-148, limits assumed)
CLR/RAMP1 receptor [5] = biological target: T1, CLR/RAMP1 receptor; remark: listed apart in the source
CLR/RAMP2 receptor [6] = biological target: T2, CLR/RAMP2 receptor; remark: listed apart in the source

T2 sequence (Q16602 23-461 limits assumed, chain 1 of 2): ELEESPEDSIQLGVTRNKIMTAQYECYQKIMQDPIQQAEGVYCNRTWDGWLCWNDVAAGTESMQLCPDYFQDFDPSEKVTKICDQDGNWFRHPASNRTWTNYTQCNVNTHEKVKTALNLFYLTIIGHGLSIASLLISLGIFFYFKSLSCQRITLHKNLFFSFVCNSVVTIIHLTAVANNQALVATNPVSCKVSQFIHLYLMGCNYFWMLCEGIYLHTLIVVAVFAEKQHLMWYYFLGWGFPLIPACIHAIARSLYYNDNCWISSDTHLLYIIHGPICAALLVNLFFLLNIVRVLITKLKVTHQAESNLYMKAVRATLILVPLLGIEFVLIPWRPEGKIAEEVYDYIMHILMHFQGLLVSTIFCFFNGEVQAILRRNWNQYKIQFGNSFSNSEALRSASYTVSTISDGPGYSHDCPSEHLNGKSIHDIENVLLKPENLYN
T2 sequence (O60895 43-175 limits assumed, chain 2 of 2): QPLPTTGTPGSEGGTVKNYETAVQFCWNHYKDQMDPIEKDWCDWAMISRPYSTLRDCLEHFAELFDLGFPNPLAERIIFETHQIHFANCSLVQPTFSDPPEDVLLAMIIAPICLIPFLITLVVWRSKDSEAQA
T1 sequence (Q16602 23-461 limits assumed, chain 1 of 2): as the sequence (Q16602 23-461 limits assumed, chain 1 of 2) above
T1 sequence (O60894 27-148 limits assumed, chain 2 of 2): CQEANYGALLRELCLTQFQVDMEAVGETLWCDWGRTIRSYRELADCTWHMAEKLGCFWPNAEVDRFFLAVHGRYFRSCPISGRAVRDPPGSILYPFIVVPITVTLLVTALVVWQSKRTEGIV
Sequence of CLR/RAMP3 receptor (Q16602 23-461 limits assumed, chain 1 of 2): as the sequence (Q16602 23-461 limits assumed, chain 1 of 2) above
Sequence of CLR/RAMP3 receptor (O60896 24-148 limits assumed, chain 2 of 2): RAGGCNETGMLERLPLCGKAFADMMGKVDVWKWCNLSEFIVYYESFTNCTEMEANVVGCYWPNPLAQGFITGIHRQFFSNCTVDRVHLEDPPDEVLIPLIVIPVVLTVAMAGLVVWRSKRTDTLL

Row | Binder | CLR/RAMP1 EC50 (CLR/RAMP1 receptor [1]) [nM] | CLR/RAMP2 EC50 (CLR/RAMP2 receptor [2]) [nM] | CLR/RAMP1 IC50 (CLR/RAMP1 receptor [3]) [nM] | CLR/RAMP2 IC50 (CLR/RAMP2 receptor [4]) [nM] | further results
1 | B1 | 43 | 6.4 | – | – | –
2 | B2 | – | – | 1120 | 289 | –
3 | B3 | 0.2 | 0.7 | – | – | –
4 | B4 | – | – | < 0.5 | – | CLR/RAMP1 Max Activity (antagonist) (CLR/RAMP1 receptor [3]): 102 % of positive control
5 | B5 | – | – | – | – | CLR/RAMP1 Max Activity (antagonist) (CLR/RAMP1 receptor [3]): 95 % of positive control; CLR/RAMP2 Max Activity (antagonist) (CLR/RAMP2 receptor [4]): 103 % of positive control; CLR/RAMP3 Max Activity (antagonist) (CLR/RAMP3 receptor): 102 % of positive control
6 | B6 | – | – | 3.2 | 4.9 | CLR/RAMP3 IC50 (CLR/RAMP3 receptor): 1.8 nM
7 | B7 | 0.6 | 0.9 | – | – | –
8 | B8 | – | – | – | – | CLR/RAMP1 Max Activity (antagonist) (CLR/RAMP1 receptor [3]): 100 % of positive control; CLR/RAMP2 Max Activity (antagonist) (CLR/RAMP2 receptor [4]): 80 % of positive control
9 | B9 | 0.1 | 0.2 | – | – | –
10 | B10 | – | – | 5.8 | 85 | CLR/RAMP3 IC50 (CLR/RAMP3 receptor): 9.2 nM
11 | B11 | – | – | 4.7 | 50 | –
12 | B12 | – | – | 4.8 | 146 | CLR/RAMP3 IC50 (CLR/RAMP3 receptor): 8.4 nM
13 | B13 | – | – | – | – | CLR/RAMP1 IC50 (CLR/RAMP1 receptor [5]): 2 nM; CLR/RAMP1 Max Activity (antagonist) (CLR/RAMP1 receptor [5]): 102 % of positive controls; CLR/RAMP2 IC50 (CLR/RAMP2 receptor [6]): < 0.5 nM; CLR/RAMP2 Max Activity (antagonist) (CLR/RAMP2 receptor [6]): 87 % of positive controls
14 | B14 | – | – | 9.9 | 47 | –
15 | B15 | – | – | 4.8 | 34 | CLR/RAMP1 Max Activity (antagonist) (CLR/RAMP1 receptor [3]): 104 % of positive control; CLR/RAMP2 Max Activity (antagonist) (CLR/RAMP2 receptor [4]): 107 % of positive control; CLR/RAMP3 IC50 (CLR/RAMP3 receptor): 0.8 nM; CLR/RAMP3 Max Activity (antagonist) (CLR/RAMP3 receptor): 101 % of positive control
16 | B16 | – | – | – | – | CLR/RAMP2 EC50 (CLR/RAMP2 receptor [6]): 1 nM; CLR/RAMP2 Max Activity (CLR/RAMP2 receptor [6]): 46 % of positive controls
17 | B17 | – | – | 1.8 | 5.3 | CLR/RAMP3 IC50 (CLR/RAMP3 receptor): 2.3 nM
18 | B18 | 34 | 49 | – | – | –
19 | B19 | 0.1 | 0.3 | – | – | –

Row | Binder | CLR/RAMP1 EC50 (CLR/RAMP1 receptor [1]) [nM] | CLR/RAMP2 EC50 (CLR/RAMP2 receptor [2]) [nM] | CLR/RAMP1 IC50 (CLR/RAMP1 receptor [3]) [nM] | CLR/RAMP2 IC50 (CLR/RAMP2 receptor [4]) [nM] | further results
20 | B20 | – | – | 7.3 | 61 | CLR/RAMP3 IC50 (CLR/RAMP3 receptor): 4.1 nM
21 | B21 | – | – | < 0.5 | – | CLR/RAMP1 Max Activity (antagonist) (CLR/RAMP1 receptor [3]): 99 % of positive control
22 | B22 | 771 | 17 | – | – | –
23 | B23 | 234 | 19 | – | – | –
24 | B24 | 0.4 | 0.9 | – | – | –
25 | B25 | – | – | – | > 10000 | CLR/RAMP2 Max Activity (antagonist) (CLR/RAMP2 receptor [4]): 0 % of positive control
26 | B26 | – | – | 21 | 0.6 | CLR/RAMP3 IC50 (CLR/RAMP3 receptor): 1.5 nM
27 | B27 | 8 | 0.9 | – | – | CLR/RAMP2 Max Activity (CLR/RAMP2 receptor [2]): 22 % of positive control
28 | B28 | 0.8 | 1 | – | – | –
29 | B29 | 2 | 1 | – | – | –
30 | B30 | – | – | – | – | CLR/RAMP1 Max Activity (antagonist) (CLR/RAMP1 receptor [3]): 43 % of positive control; CLR/RAMP2 Max Activity (antagonist) (CLR/RAMP2 receptor [4]): 14 % of positive control
31 | B31 | – | – | 7 | 7.1 | –
32 | B32 | 0.8 | 0.9 | – | – | –
33 | B33 | – | – | 152 | 7.3 | CLR/RAMP3 IC50 (CLR/RAMP3 receptor): 53 nM
34 | B34 | – | – | 1880 | 117 | CLR/RAMP3 IC50 (CLR/RAMP3 receptor): 115 nM
35 | B35 | 0.3 | 0.4 | – | – | –
36 | B36 | 0.5 | 0.2 | – | – | CLR/RAMP1 Max Activity (CLR/RAMP1 receptor [1]): 39 % of positive control; CLR/RAMP2 Max Activity (CLR/RAMP2 receptor [2]): 30 % of positive control
37 | B37 | 0.5 | 0.7 | – | – | –
38 | B38 | 0.2 | 0.5 | – | – | –
